# Assay results reported in US7495116B2, “Phospholipid derivative” (NOF Corporation, priority 2002, dated 2009).
# Experiment: Determination of salt tolerant effect (clouding point, evaluation as surfactant)
# Assay type: physicochemical
# Conditions: 1 weight % solution in 5 weight % aqueous sodium sulfate
# Description: As a result of the measurement, the clouding point was not detectable even when the temperature was raised up to 80° C.
substance,measurement,value
monomethylpolyoxyethylenecarbamyl (Molecular Weight: 2000) distearoylphosphatidylethanolamine [Comparative Synthesis Example 1],Clouding point,50.0 °C
